From article PMC7822592, “The half-life of the bone-derived hormone osteocalcin is regulated through O-glycosylation in mice, but not in humans” (eLife, 2020)
No end group written: not given here.

Experiment: Ex vivo half-life of mouse OCN in plasma
Assay type: in vitro ADME
Conditions: 100 ng/ml
Protocol: The mouse OCN ex vivo half-life assays were performed with fresh plasma (lithium heparin) collected from four independent Bglap-/- mice. Glycosylated OCN produced in HEK293 cells and non-glycosylated OCN, produced in bacteria as previously described ([Ferron et al., 2012]), were incubated at 100 ng/ml in plasma at 37°C and OCN level was measured at indicated time points using the total mouse OCN ELISA assay described previously ([Ferron et al., 2010b]). […] The detection antibody is a goat polyclonal antibody directed against the C-terminal region (amino acids 26 to 46) of mouse OCN (anti-CTERM OCN). This assay detects with the same sensitivity glycosylated and non-glycosylated mouse OCN at concentration of 50 ng/ml or less (Figure 3—figure supplement 2). Therefore, all samples were diluted to be in this range before being measured by the ELISA. Human OCN half-life assay was performed ex vivo using Bglap-/- mice plasma and human OCN at 60 ng/ml. Human OCN level was measured at different time point using the human ucOCN ELISA described above. At the experiment start point (T0), an aliquot of plasma was diluted in ELISA assay buffer and kept on ice for OCN measurements. In some experiments, plasma was heat-inactivated for 30 min at 56°C, or treated with EDTA (10 mM, Wisent), phenylmethylsulfonyl fluoride (PMSF, 10 mM, Sigma), pepstatin A (Pep A, 10 μM, Sigma) which inhibits aspartic proteases (pepsin, cathepsin D, renin, chymosin), RVKR (Dec-RVKR-CMK, 50 μM; Tocris) or talabostat (10 mM; Tocris). Results are calculated in percentage relative to the initial concentration of non-glycosylated and glycosylated OCN respectively.

ucOCN: Non-glycosylated uncarboxylated mouse osteocalcin produced in bacteria (YLGASVPSPDPLEPTREQCELNPACDELSDQYGLKTAYKRIYGITI; ends and bridges not checked; cysteine pairing not given here; UniProt P86546 50-95, looked up)
stability in saline solution containing 3.5% BSA (37°C, 2 hr, ELISA): stable
% OCN from initial (Bglap-/- mouse plasma, 37°C, 0 min, ELISA, replicate 1): 100.0%
% OCN from initial (Bglap-/- mouse plasma, 37°C, 0 min, ELISA, replicate 2): 100.0%
% OCN from initial (Bglap-/- mouse plasma, 37°C, 0 min, ELISA, replicate 3): 100.0%
% OCN from initial (Bglap-/- mouse plasma, 37°C, 15 min, ELISA, replicate 1): 87.1%
% OCN from initial (Bglap-/- mouse plasma, 37°C, 15 min, ELISA, replicate 2): 96.1%
% OCN from initial (Bglap-/- mouse plasma, 37°C, 15 min, ELISA, replicate 3): 88.6%
% OCN from initial (Bglap-/- mouse plasma, 37°C, 30 min, ELISA, replicate 1): 81.2%
% OCN from initial (Bglap-/- mouse plasma, 37°C, 30 min, ELISA, replicate 2): 85.3%
% OCN from initial (Bglap-/- mouse plasma, 37°C, 30 min, ELISA, replicate 3): 89.8%
% OCN from initial (Bglap-/- mouse plasma, 37°C, 60 min, ELISA, replicate 1): 73.3%
% OCN from initial (Bglap-/- mouse plasma, 37°C, 60 min, ELISA, replicate 2): 71.4%
% OCN from initial (Bglap-/- mouse plasma, 37°C, 60 min, ELISA, replicate 3): 69.0%
% OCN from initial (Bglap-/- mouse plasma, 37°C, 90 min, ELISA, replicate 1): 67.3%
% OCN from initial (Bglap-/- mouse plasma, 37°C, 90 min, ELISA, replicate 2): 65.7%
% OCN from initial (Bglap-/- mouse plasma, 37°C, 90 min, ELISA, replicate 3): 66.9%
% OCN from initial (Bglap-/- mouse plasma, 37°C, 120 min, ELISA, replicate 1): 60.1%
% OCN from initial (Bglap-/- mouse plasma, 37°C, 120 min, ELISA, replicate 2): 56.6%
% OCN from initial (Bglap-/- mouse plasma, 37°C, 120 min, ELISA, replicate 3): 51.9%
% OCN from initial (Bglap-/- mouse plasma, 37°C, 180 min, ELISA, replicate 1): 51.9%
% OCN from initial (Bglap-/- mouse plasma, 37°C, 180 min, ELISA, replicate 2): 46.9%
% OCN from initial (Bglap-/- mouse plasma, 37°C, 180 min, ELISA, replicate 3): 43.8%
% OCN from initial (Bglap-/- mouse plasma, 37°C, 300 min, ELISA, replicate 1): 36.9%
% OCN from initial (Bglap-/- mouse plasma, 37°C, 300 min, ELISA, replicate 2): 36.3%
% OCN from initial (Bglap-/- mouse plasma, 37°C, 300 min, ELISA, replicate 3): 30.7%
% OCN from initial (Figure 3D, Bglap-/- mouse plasma, 2hrs, 4°C, Not HI, ELISA, replicate 1): 108.8%
% OCN from initial (Figure 3D, Bglap-/- mouse plasma, 2hrs, 4°C, Not HI, ELISA, replicate 2): 99.4%
% OCN from initial (Figure 3D, Bglap-/- mouse plasma, 2hrs, 4°C, Not HI, ELISA, replicate 3): 94.3%
% OCN from initial (Figure 3D, Bglap-/- mouse plasma, 2hrs, 37°C, HI (heat-inactivated plasma), ELISA, replicate 1): 108.8%
% OCN from initial (Figure 3D, Bglap-/- mouse plasma, 2hrs, 37°C, HI (heat-inactivated plasma), ELISA, replicate 2): 108.9%
% OCN from initial (Figure 3D, Bglap-/- mouse plasma, 2hrs, 37°C, HI (heat-inactivated plasma), ELISA, replicate 3): 82.4%
% OCN from initial (Figure 3D, Bglap-/- mouse plasma, 2hrs, 37°C, Not HI, ELISA, replicate 1): 34.6%
% OCN from initial (Figure 3D, Bglap-/- mouse plasma, 2hrs, 37°C, Not HI, ELISA, replicate 2): 23.3%
% OCN from initial (Figure 3D, Bglap-/- mouse plasma, 2hrs, 37°C, Not HI, ELISA, replicate 3): 37.9%
% OCN from initial (Figure 3D, Bglap-/- mouse plasma, T0, ELISA, replicate 1): 101.3%
% OCN from initial (Figure 3D, Bglap-/- mouse plasma, T0, ELISA, replicate 2): 100.0%
% OCN from initial (Figure 3D, Bglap-/- mouse plasma, T0, ELISA, replicate 3): 98.7%
% OCN from initial (Figure 3 supplement 3A, 3.5% BSA in saline solution, 2 hours at 37 °C, replicate 1): 108.8%
% OCN from initial (Figure 3 supplement 3A, 3.5% BSA in saline solution, 2 hours at 37 °C, replicate 2): 110.0%
% OCN from initial (Figure 3 supplement 3A, 3.5% BSA in saline solution, 2 hours at 37 °C, replicate 3): 106.2%
% OCN from initial (Figure 3 supplement 3A, Bglap-/- mouse plasma, 4°C, T=2hours, replicate 1): 94.9%
% OCN from initial (Figure 3 supplement 3A, Bglap-/- mouse plasma, 4°C, T=2hours, replicate 2): 99.7%
% OCN from initial (Figure 3 supplement 3A, Bglap-/- mouse plasma, 4°C, T=2hours, replicate 3): 100.1%
% OCN from initial (Figure 3 supplement 3A, Bglap-/- mouse plasma, 2 hours at 37 °C, Pepstatin A (10uM), replicate 1): 52.2%
% OCN from initial (Figure 3 supplement 3A, Bglap-/- mouse plasma, 2 hours at 37 °C, Pepstatin A (10uM), replicate 2): 57.4%
% OCN from initial (Figure 3 supplement 3A, Bglap-/- mouse plasma, 2 hours at 37 °C, Pepstatin A (10uM), replicate 3): 69.1%
% OCN from initial (Figure 3 supplement 3A, Bglap-/- mouse plasma, 2 hours at 37 °C, RVKR (50uM), replicate 1): 56.2%
% OCN from initial (Figure 3 supplement 3A, Bglap-/- mouse plasma, 2 hours at 37 °C, RVKR (50uM), replicate 2): 66.8%
% OCN from initial (Figure 3 supplement 3A, Bglap-/- mouse plasma, 2 hours at 37 °C, RVKR (50uM), replicate 3): 78.0%
% OCN from initial (Figure 3 supplement 3A, Bglap-/- mouse plasma, 2 hours at 37 °C, vehicle (V), replicate 1): 48.4%
% OCN from initial (Figure 3 supplement 3A, Bglap-/- mouse plasma, 2 hours at 37 °C, vehicle (V), replicate 2): 65.6%
% OCN from initial (Figure 3 supplement 3A, Bglap-/- mouse plasma, 2 hours at 37 °C, vehicle (V), replicate 3): 67.2%
% OCN from initial (Figure 3 supplement 3A, Bglap-/- mouse plasma, T0, replicate 1): 107.3%
% OCN from initial (Figure 3 supplement 3A, Bglap-/- mouse plasma, T0, replicate 2): 96.2%
% OCN from initial (Figure 3 supplement 3A, Bglap-/- mouse plasma, T0, replicate 3): 96.6%
% OCN from initial (Figure 3 supplement 3B, Bglap-/- mouse plasma, 4°C, T=2hours, replicate 1): 108.8%
% OCN from initial (Figure 3 supplement 3B, Bglap-/- mouse plasma, 4°C, T=2hours, replicate 2): 99.4%
% OCN from initial (Figure 3 supplement 3B, Bglap-/- mouse plasma, 4°C, T=2hours, replicate 3): 94.3%
% OCN from initial (Figure 3 supplement 3B, Bglap-/- mouse plasma, 2 hours at 37 °C, 10 mM EDTA, replicate 1): 37.4%
% OCN from initial (Figure 3 supplement 3B, Bglap-/- mouse plasma, 2 hours at 37 °C, 10 mM EDTA, replicate 2): 24.3%
% OCN from initial (Figure 3 supplement 3B, Bglap-/- mouse plasma, 2 hours at 37 °C, 10 mM EDTA, replicate 3): 37.4%
% OCN from initial (Figure 3 supplement 3B, Bglap-/- mouse plasma, 2 hours at 37 °C, vehicle (V), replicate 1): 34.6%
% OCN from initial (Figure 3 supplement 3B, Bglap-/- mouse plasma, 2 hours at 37 °C, vehicle (V), replicate 2): 23.3%
% OCN from initial (Figure 3 supplement 3B, Bglap-/- mouse plasma, 2 hours at 37 °C, vehicle (V), replicate 3): 37.9%
% OCN from initial (Figure 3 supplement 3B, Bglap-/- mouse plasma, T0, replicate 1): 101.3%
% OCN from initial (Figure 3 supplement 3B, Bglap-/- mouse plasma, T0, replicate 2): 100.0%
% OCN from initial (Figure 3 supplement 3B, Bglap-/- mouse plasma, T0, replicate 3): 98.7%
half-life in plasma ex vivo (fresh Bglap-/- mouse plasma (lithium heparin), 37°C, total mouse OCN ELISA, n = 4 plasma): ~ 120 min
